Test results published in patent US20060257938A1, “Method of screening for drugs that block ligand binding to a lipid binding protein” (priority 2005, published 2006).
Positions count from the first letter of the chain named. Values joined by “and” are separate entries in the source; they are usually repeats but may differ in a detail not shown here. Identical values can stand only once.

B1: L1P5 H9: FABP probe, mutations 14M 72I 117W vs SEQ ID NO: 2 (protein, listed as Rattus norvegicus)
chain: AFDGTWKVDRNENMEKFMEKMGINVVKRKLGAHDNLKLTITQEGNKFTVKESSNFRNIDVVFELGVDFAYSIADGTELTGTWTMEGNKLVGKFKRVDNGKELIAVREISGNELIQTWTYEGVEAKRIFKKE
modifications: PEPTIDE (1)...(131) wild-type rat intestinal fatty acid binding protein
B2: L2P22 B1: FABP probe, mutations 18Y 31V 55V 72A vs SEQ ID NO: 2 (protein, listed as Rattus norvegicus)
chain: B1 chain with M14Y, M18Y, G31V, F55V, I72A, W117Y
modifications: PEPTIDE (1)...(131) wild-type rat intestinal fatty acid binding protein
B3: L5P16 H4: FABP probe, mutations 126K 73F 72A vs SEQ ID NO: 2 (protein, listed as Rattus norvegicus)
chain: B1 chain with M14Y, I72A, A73F, W117Y, R126K
modifications: PEPTIDE (1)...(131) wild-type rat intestinal fatty acid binding protein
B4: L1P1 B4: FABP probe, mutations 14I 72W 117W vs SEQ ID NO: 2 (protein, listed as Rattus norvegicus)
chain: B1 chain with M14I, I72W
modifications: PEPTIDE (1)...(131) wild-type rat intestinal fatty acid binding protein
B5: L1P1 C12: FABP probe, mutations 38I 72W 117W vs SEQ ID NO: 2 (protein, listed as Rattus norvegicus)
chain: B1 chain with M14Y, L38I, I72W
modifications: PEPTIDE (1)...(131) wild-type rat intestinal fatty acid binding protein
B6: 72F (protein, listed as Rattus norvegicus)
chain: B1 chain with M14Y, I72F, W117Y
modifications: PEPTIDE (1)...(131) wild-type rat intestinal fatty acid binding protein
B7: 72T 73W 74G (protein, listed as Rattus norvegicus)
chain: B1 chain with M14Y, I72T, A73W, D74G, W117Y
modifications: PEPTIDE (1)...(131) wild-type rat intestinal fatty acid binding protein
B8: 72H 73P 74L (protein, listed as Rattus norvegicus)
chain: B1 chain with M14Y, I72H, A73P, D74L, W117Y
modifications: PEPTIDE (1)...(131) wild-type rat intestinal fatty acid binding protein
B9: 72S 73P 74I (protein, listed as Rattus norvegicus)
chain: B1 chain with M14Y, I72S, A73P, D74I, W117Y
modifications: PEPTIDE (1)...(131) wild-type rat intestinal fatty acid binding protein
B10: 38Y 62W 117A 72A (protein, listed as Rattus norvegicus)
chain: B1 chain with M14Y, L38Y, F62W, I72A, W117A
modifications: PEPTIDE (1)...(131) wild-type rat intestinal fatty acid binding protein
B11: 18I 31F 72A (protein, listed as Rattus norvegicus)
chain: B1 chain with M14Y, M18I, G31F, I72A, W117Y
modifications: PEPTIDE (1)...(131) wild-type rat intestinal fatty acid binding protein
B12: 119M, 72A (protein, listed as Rattus norvegicus)
chain: B1 chain with M14Y, I72A, W117Y, Y119M
modifications: PEPTIDE (1)...(131) wild-type rat intestinal fatty acid binding protein
B13: 21W 72A (protein, listed as Rattus norvegicus)
chain: B1 chain with M14Y, M21W, I72A, W117Y
modifications: PEPTIDE (1)...(131) wild-type rat intestinal fatty acid binding protein
B14: 38Y 18L 73V 72A (protein, listed as Rattus norvegicus)
chain: B1 chain with M14Y, M18L, L38Y, I72A, A73V, W117Y
modifications: PEPTIDE (1)...(131) wild-type rat intestinal fatty acid binding protein

Experiment: Probe fluorescence intensity change with UCB:BSA
Assay type: binding
Conditions: 1:1 UCB:BSA, 440 nm

Row | Molecule | ΔI/Io 1:1 UCB:BSA 440 nm
1 | B1 | −0.58
2 | B2 | −0.70
3 | B3 | −0.69
4 | B4 | −0.66
5 | B5 | −0.92

Same assay, conditions: 1:1 UCB:BSA, 500 nm

Row | Molecule | ΔI/Io 1:1 UCB:BSA 500 nm
6 | B1 | −0.63
7 | B2 | −0.68
8 | B3 | −0.64
9 | B4 | −0.64
10 | B5 | −0.86

Same assay, conditions: 1:2 UCB:BSA, 440 nm

Row | Molecule | ΔI/Io 1:2 UCB:BSA 440 nm
11 | B1 | −0.34
12 | B2 | −0.36
13 | B3 | −0.37
14 | B4 | −0.36
15 | B5 | −0.86

Same assay, conditions: 1:2 UCB:BSA, 500 nm

Row | Molecule | ΔI/Io 1:2 UCB:BSA 500 nm
16 | B1 | −0.34
17 | B2 | −0.35
18 | B3 | −0.31
19 | B4 | −0.35
20 | B5 | −0.79

Experiment: Probe fluorescence ratio response to linolenic acid relative to ADIFAB2
Assay type: binding
Conditions: response relative to ADIFAB2
Outline: (§1)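 Each fatty acid's response was expressed relative to ADIFAB2, the rI-FABP-L72A probe, as ΔR/ΔRreference. ΔR is the change in the background-corrected two-wavelength intensity ratio R=Fλ1/Fλ2 from its analyte-free baseline R0. Emission was read near about 420-480 nm for unbound and about 495-580 nm for FFA-bound probe.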

Row | Molecule | DR/DR LNA
21 | B6 | 0.59 and 0.592
22 | B7 | 1.702
23 | B8 | 6.352
24 | B9 | 3.091
25 | B10 | 1.237
26 | B11 | 3.027
27 | B12 | 2.280
28 | B13 | 2.550
29 | B14 | 0.133

Experiment: Probe fluorescence ratio response to palmitoleic acid relative to ADIFAB2
Assay type: binding
Conditions: response relative to ADIFAB2
Outline: as §1

Row | Molecule | DR/DR POA
30 | B7 | 2.770
31 | B8 | 7.165
32 | B9 | 3.155
33 | B10 | 0.272
34 | B11 | 2.659
35 | B13 | 2.120
36 | B14 | 0.023

Experiment: Probe fluorescence ratio response to linoleic acid relative to ADIFAB2
Assay type: binding
Conditions: response relative to ADIFAB2
Outline: as §1

Row | Molecule | DR/DR LA
37 | B6 | 0.61 and 0.612
38 | B7 | 1.348
39 | B8 | 5.429
40 | B9 | 2.792
41 | B10 | 1.848
42 | B11 | 2.707
43 | B12 | 1.184
44 | B13 | 2.551
45 | B14 | 0.034

Experiment: Probe fluorescence ratio response to stearic acid relative to ADIFAB2
Assay type: binding
Conditions: response relative to ADIFAB2
Outline: as §1

Row | Molecule | DR/DR SA
46 | B7 | 0.305
47 | B8 | 1.474
48 | B9 | 1.337
49 | B10 | 0.854
50 | B11 | 0.950
51 | B13 | 1.946
52 | B14 | 0.824

Experiment: Probe fluorescence ratio response to oleic acid relative to ADIFAB2
Assay type: binding
Conditions: response relative to ADIFAB2
Outline: as §1

Row | Molecule | DR/DR OA
53 | B6 | 0.57 and 0.571
54 | B7 | 0.822
55 | B8 | 3.919
56 | B9 | 2.162
57 | B10 | 1.896
58 | B11 | 1.761
59 | B12 | 1.191
60 | B13 | 2.808
61 | B14 | 0.235

Experiment: Probe fluorescence ratio response to arachidonic acid relative to ADIFAB2
Assay type: binding
Conditions: Arachidonic acid; response relative to ADIFAB2
Outline: as §1

Row | Molecule | DR/DR AA
62 | B6 | 0.40

Same assay, conditions: arachidonic acid; response relative to ADIFAB2

Row | Molecule | DR/DR AA
63 | B6 | 0.401
64 | B7 | 0.687
65 | B8 | 4.597
66 | B9 | 2.154
67 | B10 | 2.353
68 | B11 | 2.043
69 | B12 | 1.087
70 | B13 | 3.829
71 | B14 | 1.172

Experiment: Probe fluorescence ratio response to palmitic acid relative to ADIFAB2
Assay type: binding
Conditions: response relative to ADIFAB2
Outline: as §1

Row | Molecule | DR/DR PA
72 | B6 | 0.46 and 0.456
73 | B7 | 1.817
74 | B8 | 5.260
75 | B9 | 2.210
76 | B10 | 0.316
77 | B11 | 2.037
78 | B12 | 0.722
79 | B13 | 1.637
80 | B14 | 0.067

Experiment: Response profile of probe to fatty acids (Table 2)
Assay type: binding
Conditions: not given

Row | Molecule | response profile
81 | B6 | AA lowest
82 | B7 | SA and AA lowest
83 | B8 | Large Response, Favors
84 | B9 | Favors POA and LNA
85 | B10 | Favors AA
86 | B11 | Favors LNA
87 | B12 | Favors LNA
88 | B13 | Large Response, Favors AA
89 | B14 | AA and SA
